In paper PMC9482650, “Quantitative fragmentomics allow affinity mapping of interactomes” (Nature Communications, 2022):

T1: SNTA1, Q13424
T1 sequence (Q13424 82-180, limits assumed, looked up): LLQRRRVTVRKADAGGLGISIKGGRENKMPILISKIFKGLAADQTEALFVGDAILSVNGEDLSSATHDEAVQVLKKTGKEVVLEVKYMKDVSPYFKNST

T2: RHPN1, Q8TCX5
T2 sequence (Q8TCX5 508-602, limits assumed, looked up): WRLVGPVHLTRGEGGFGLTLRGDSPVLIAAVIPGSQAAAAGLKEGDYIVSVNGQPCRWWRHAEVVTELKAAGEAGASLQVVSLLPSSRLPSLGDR

T3: CARD11, Q9BXL7
T3 sequence (Q9BXL7 662-765, limits assumed, looked up): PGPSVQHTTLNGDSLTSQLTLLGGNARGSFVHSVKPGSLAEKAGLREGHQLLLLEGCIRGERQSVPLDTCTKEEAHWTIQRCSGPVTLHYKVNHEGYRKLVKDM

T4: MPP7, Q5T2T1
T4 sequence (Q5T2T1 134-230, limits assumed, looked up): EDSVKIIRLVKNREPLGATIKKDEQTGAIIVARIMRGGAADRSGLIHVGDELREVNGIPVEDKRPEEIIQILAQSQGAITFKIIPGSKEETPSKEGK

T5: FRMPD1, Q5SYB0
T5 sequence (Q5SYB0 52-145, limits assumed, looked up): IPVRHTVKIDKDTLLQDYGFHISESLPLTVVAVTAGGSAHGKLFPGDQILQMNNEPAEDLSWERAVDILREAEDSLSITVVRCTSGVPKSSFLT

T6: MPP6, Q9NZW5
T6 sequence (Q9NZW5 125-219, limits assumed, looked up): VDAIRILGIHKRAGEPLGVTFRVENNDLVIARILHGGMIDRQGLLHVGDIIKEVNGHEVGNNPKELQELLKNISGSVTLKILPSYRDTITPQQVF

T7: APBA2_1, Q99767
T7 sequence (Q99767 563-664, limits assumed, looked up): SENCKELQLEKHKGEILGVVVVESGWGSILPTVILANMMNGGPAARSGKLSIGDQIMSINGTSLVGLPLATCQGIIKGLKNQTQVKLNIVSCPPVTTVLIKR

T8: SNTG1, Q9NSN8
T8 sequence (Q9NSN8 52-150, limits assumed, looked up): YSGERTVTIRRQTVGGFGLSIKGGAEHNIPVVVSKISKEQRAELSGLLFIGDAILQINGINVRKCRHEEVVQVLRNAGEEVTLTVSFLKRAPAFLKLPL

T9: NHERF3_4, Q5T2W1
T9 sequence (Q5T2W1 373-468, limits assumed, looked up): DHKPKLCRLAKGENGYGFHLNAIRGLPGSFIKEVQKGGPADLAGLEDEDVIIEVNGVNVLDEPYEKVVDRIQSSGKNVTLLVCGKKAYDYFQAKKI

T10: HTRA3, P83110
T10 sequence (P83110 354-453, limits assumed, looked up): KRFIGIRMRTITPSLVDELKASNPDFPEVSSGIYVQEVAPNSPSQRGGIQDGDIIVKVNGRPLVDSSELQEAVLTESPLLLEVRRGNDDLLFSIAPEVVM

T11: TX1BP3, O14907
T11 sequence (O14907 10-122, limits assumed, looked up): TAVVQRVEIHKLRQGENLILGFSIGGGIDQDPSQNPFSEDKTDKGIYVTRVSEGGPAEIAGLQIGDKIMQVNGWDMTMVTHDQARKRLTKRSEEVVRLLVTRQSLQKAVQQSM

T12: PDZD7_3, Q9H5P4
T12 sequence (Q9H5P4 857-944, limits assumed, looked up): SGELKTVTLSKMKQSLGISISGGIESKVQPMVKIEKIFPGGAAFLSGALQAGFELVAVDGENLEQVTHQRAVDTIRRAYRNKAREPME

T13: ARHGEF11, O15085
T13 sequence (O15085 42-136, limits assumed, looked up): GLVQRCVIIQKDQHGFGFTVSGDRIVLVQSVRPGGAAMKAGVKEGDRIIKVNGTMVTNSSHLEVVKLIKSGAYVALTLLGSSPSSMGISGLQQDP

T14: APBA3_1, O96018
T14 sequence (O96018 389-490, limits assumed, looked up): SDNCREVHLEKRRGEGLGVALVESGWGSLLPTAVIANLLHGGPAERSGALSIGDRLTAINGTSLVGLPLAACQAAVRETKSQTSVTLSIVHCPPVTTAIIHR

T15: TJP3_3, O95049
T15 sequence (O95049 375-456, limits assumed, looked up): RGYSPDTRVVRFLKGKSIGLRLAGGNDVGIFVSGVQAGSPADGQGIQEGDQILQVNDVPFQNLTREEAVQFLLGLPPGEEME

B1: KCNV1, Q6PIU1 (peptide)
chain: RSSGGDDFWF
B2: CLDN3, O15551 (peptide)
chain: GTGYDRKDYV
B3: PTPN18, Q99952 (peptide)
chain: RDPPAEWTRV

What follows are binders tested against T1, SNTA1, Q13424 (assay: holdup assay). Conditions: plain residues with an end cap or a label only (N-terminal biotin on a linker: ado-ado).
Design: key: below the threshold = too weak to quantify, mostly under pKd 3.1 to 4
With B1 the pKd was “below the threshold”. With B2 the pKd was “below the threshold”. In the case of B3, the pKd is reported as 4.39.

The binders below were run against GRIP2_4, Q9C0E4 (assay: holdup assay). Conditions: plain residues with an end cap or a label only (N-terminal biotin on a linker: ado-ado).
Chain of GRIP2_4, Q9C0E4 (Q9C0E4 446-548): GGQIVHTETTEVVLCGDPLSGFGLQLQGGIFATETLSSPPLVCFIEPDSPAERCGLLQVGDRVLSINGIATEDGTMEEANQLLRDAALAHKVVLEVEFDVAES
Design: key: below the threshold = too weak to quantify, mostly under pKd 3.1 to 4
With B1 the pKd was “below the threshold”. Binder B2 has a pKd of 3.53. With B3 the pKd was “below the threshold”.

These binders were tested against T2, RHPN1, Q8TCX5 (assay: holdup assay). Conditions: plain residues with an end cap or a label only (N-terminal biotin on a linker: ado-ado).
Design: key: below the threshold = too weak to quantify, mostly under pKd 3.1 to 4
B1 was tested, and the pKd was “below the threshold”. With B2 the pKd was “below the threshold”. Work on B3 yielded a pKd of 4.35.

Each binder was assayed against T3, CARD11, Q9BXL7 (assay: holdup assay). Conditions: plain residues with an end cap or a label only (N-terminal biotin on a linker: ado-ado).
Design: key: below the threshold = too weak to quantify, mostly under pKd 3.1 to 4
B1 was tested, and the pKd was “below the threshold”. For B2, the pKd was “below the threshold”. For B3, the pKd was “below the threshold”.

What follows are binders tested against MAGI1_1, Q96QZ7 (assay: holdup assay). Conditions: plain residues with an end cap or a label only (N-terminal biotin on a linker: ado-ado).
Chain of MAGI1_1, Q96QZ7 (Q96QZ7 1-106): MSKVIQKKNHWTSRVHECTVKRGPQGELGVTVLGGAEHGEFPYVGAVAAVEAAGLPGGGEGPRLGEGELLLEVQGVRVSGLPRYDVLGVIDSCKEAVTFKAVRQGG
Design: key: below the threshold = too weak to quantify, mostly under pKd 3.1 to 4
With B1 the pKd was “below the threshold”. B2 was tested, and the pKd was “below the threshold”. With B3 the pKd was “below the threshold”.

The binders below were run against MAGI2_6, Q86UL8 (assay: holdup assay). Conditions: plain residues with an end cap or a label only (N-terminal biotin on a linker: ado-ado).
Chain of MAGI2_6, Q86UL8 (Q86UL8 1141-1229): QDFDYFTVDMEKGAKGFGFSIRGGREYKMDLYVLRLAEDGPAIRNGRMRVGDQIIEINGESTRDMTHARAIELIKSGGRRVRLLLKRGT
Design: key: below the threshold = too weak to quantify, mostly under pKd 3.1 to 4
B1 was tested, and the pKd was “below the threshold”. B2 was tested, and the pKd was 3.52. B3 was tested, and the pKd was 4.09.

What follows are binders tested against T4, MPP7, Q5T2T1 (assay: holdup assay). Conditions: plain residues with an end cap or a label only (N-terminal biotin on a linker: ado-ado).
Design: key: below the threshold = too weak to quantify, mostly under pKd 3.1 to 4
In the case of B1, the pKd is reported as 4.45. With B2 the pKd was “below the threshold”. For B3, the pKd was “below the threshold”.

Each binder was assayed against T5, FRMPD1, Q5SYB0 (assay: holdup assay). Conditions: plain residues with an end cap or a label only (N-terminal biotin on a linker: ado-ado).
Design: key: below the threshold = too weak to quantify, mostly under pKd 3.1 to 4
In the case of B1, the pKd is reported as “below the threshold”. B2 was tested, and the pKd was “below the threshold”. B3 was tested, and the pKd was “below the threshold”.

The binders below were run against TJP1_2, Q07157 (assay: holdup assay). Conditions: plain residues with an end cap or a label only (N-terminal biotin on a linker: ado-ado).
Chain of TJP1_2, Q07157 (Q07157 181-274): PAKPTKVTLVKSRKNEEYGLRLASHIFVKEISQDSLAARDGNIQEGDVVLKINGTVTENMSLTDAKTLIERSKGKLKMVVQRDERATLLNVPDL
Design: key: below the threshold = too weak to quantify, mostly under pKd 3.1 to 4
B1 gave a pKd of 5.12. For B2, the pKd was 3.6. B3 was tested, and the pKd was “below the threshold”.

What follows are binders tested against T6, MPP6, Q9NZW5 (assay: holdup assay). Conditions: plain residues with an end cap or a label only (N-terminal biotin on a linker: ado-ado).
Design: key: below the threshold = too weak to quantify, mostly under pKd 3.1 to 4
With B1 the pKd was “below the threshold”. For B2, the pKd was “below the threshold”. In the case of B3, the pKd is reported as “below the threshold”.

The binders below were run against CASK, O14936 (assay: holdup assay). Conditions: plain residues with an end cap or a label only (N-terminal biotin on a linker: ado-ado).
Chain of CASK, O14936 (O14936 487-570): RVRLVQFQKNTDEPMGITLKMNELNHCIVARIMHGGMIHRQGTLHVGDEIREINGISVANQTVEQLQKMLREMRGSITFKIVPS
Design: key: below the threshold = too weak to quantify, mostly under pKd 3.1 to 4
B1 was tested, and the pKd was “below the threshold”. With B2 the pKd was “below the threshold”. With B3 the pKd was “below the threshold”.

These binders were tested against T7, APBA2_1, Q99767 (assay: holdup assay). Conditions: plain residues with an end cap or a label only (N-terminal biotin on a linker: ado-ado).
Design: key: below the threshold = too weak to quantify, mostly under pKd 3.1 to 4
With B1 the pKd was “below the threshold”. For B2, the pKd was “below the threshold”. In the case of B3, the pKd is reported as “below the threshold”.

What follows are binders tested against T8, SNTG1, Q9NSN8 (assay: holdup assay). Conditions: plain residues with an end cap or a label only (N-terminal biotin on a linker: ado-ado).
Design: key: below the threshold = too weak to quantify, mostly under pKd 3.1 to 4
With B1 the pKd was “below the threshold”. B2 was tested, and the pKd was “below the threshold”. B3 was tested, and the pKd was “below the threshold”.

The binders below were run against T9, NHERF3_4, Q5T2W1 (assay: holdup assay). Conditions: plain residues with an end cap or a label only (N-terminal biotin on a linker: ado-ado).
Design: key: below the threshold = too weak to quantify, mostly under pKd 3.1 to 4
With B1 the pKd was “below the threshold”. For B2, the pKd was “below the threshold”. B3 was tested, and the pKd was “below the threshold”.

Each binder was assayed against T10, HTRA3, P83110 (assay: holdup assay). Conditions: plain residues with an end cap or a label only (N-terminal biotin on a linker: ado-ado).
Design: key: below the threshold = too weak to quantify, mostly under pKd 3.1 to 4
B1 was tested, and the pKd was 4.37. Binder B2 has a pKd of 4.17. In the case of B3, the pKd is reported as “below the threshold”.

The binders below were run against GRIP2_7, Q9C0E4 (assay: holdup assay). Conditions: plain residues with an end cap or a label only (N-terminal biotin on a linker: ado-ado).
Chain of GRIP2_7, Q9C0E4 (Q9C0E4 934-1023): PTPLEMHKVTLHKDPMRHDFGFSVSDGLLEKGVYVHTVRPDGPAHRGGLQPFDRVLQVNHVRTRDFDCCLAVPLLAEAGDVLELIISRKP
Design: key: below the threshold = too weak to quantify, mostly under pKd 3.1 to 4
With B1 the pKd was 4.59. With B2 the pKd was “below the threshold”. With B3 the pKd was “below the threshold”.

The binders below were run against T11, TX1BP3, O14907 (assay: holdup assay). Conditions: plain residues with an end cap or a label only (N-terminal biotin on a linker: ado-ado).
Design: key: below the threshold = too weak to quantify, mostly under pKd 3.1 to 4
B1 was tested, and the pKd was “below the threshold”. With B2 the pKd was “below the threshold”. B3 was tested, and the pKd was 4.06.

What follows are binders tested against T12, PDZD7_3, Q9H5P4 (assay: holdup assay). Conditions: plain residues with an end cap or a label only (N-terminal biotin on a linker: ado-ado).
Design: key: below the threshold = too weak to quantify, mostly under pKd 3.1 to 4
In the case of B1, the pKd is reported as 3.92. B2 was tested, and the pKd was 4. B3 was tested, and the pKd was 4.83.

Each binder was assayed against FRMPD2_1, Q68DX3 (assay: holdup assay). Conditions: plain residues with an end cap or a label only (N-terminal biotin on a linker: ado-ado).
Chain of FRMPD2_1, Q68DX3 (Q68DX3 770-861): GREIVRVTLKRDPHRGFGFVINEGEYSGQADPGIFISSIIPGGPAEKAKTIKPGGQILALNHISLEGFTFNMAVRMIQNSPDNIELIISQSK
Design: key: below the threshold = too weak to quantify, mostly under pKd 3.1 to 4
In the case of B1, the pKd is reported as “below the threshold”. In the case of B2, the pKd is reported as “below the threshold”. For B3, the pKd was “below the threshold”.

The binders below were run against T13, ARHGEF11, O15085 (assay: holdup assay). Conditions: plain residues with an end cap or a label only (N-terminal biotin on a linker: ado-ado).
Design: key: below the threshold = too weak to quantify, mostly under pKd 3.1 to 4
B1 was tested, and the pKd was “below the threshold”. B2 showed a pKd of 3.9. B3 gave a pKd of 4.38.

What follows are binders tested against T14, APBA3_1, O96018 (assay: holdup assay). Conditions: plain residues with an end cap or a label only (N-terminal biotin on a linker: ado-ado).
Design: key: below the threshold = too weak to quantify, mostly under pKd 3.1 to 4
For B1, the pKd was “below the threshold”. With B2 the pKd was “below the threshold”. For B3, the pKd was “below the threshold”.

Each binder was assayed against T15, TJP3_3, O95049 (assay: holdup assay). Conditions: plain residues with an end cap or a label only (N-terminal biotin on a linker: ado-ado).
Design: key: below the threshold = too weak to quantify, mostly under pKd 3.1 to 4
With B1 the pKd was “below the threshold”. In the case of B2, the pKd is reported as 3.73. For B3, the pKd was “below the threshold”.
